The text below walks through data of paper PMC7655957 (2020).

Assay [1] addresses T1, WT_(ZIP+)/WT_(ZIP−), BICD2_(1–98) heterodimer with C-terminal ZIP+/ZIP− leucine zipper (mouse (cDNA, methods); called human in …, UniProt Q921C5-1 1-98; Q921C5-1 1-98).
T1 chain 1: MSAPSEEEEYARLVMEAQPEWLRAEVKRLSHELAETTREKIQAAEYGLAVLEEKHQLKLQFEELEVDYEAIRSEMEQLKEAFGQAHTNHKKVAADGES
T1 chain 2: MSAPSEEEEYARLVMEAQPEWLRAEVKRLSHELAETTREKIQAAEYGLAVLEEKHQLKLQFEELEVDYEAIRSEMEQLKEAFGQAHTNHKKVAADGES
The experiment in a line: ITC; one-site binding model (rejected, poor fit).

Assay [2] deals with MBP-LIC1FL, full-length dynein light intermediate chain-1 (human, UniProt Q9Y6G9 1-523). Description: ITC; 5 mM EGTA, 30 °C.
Sequence of MBP-LIC1FL, full-length dynein light intermediate chain-1 (Q9Y6G9 whole entry): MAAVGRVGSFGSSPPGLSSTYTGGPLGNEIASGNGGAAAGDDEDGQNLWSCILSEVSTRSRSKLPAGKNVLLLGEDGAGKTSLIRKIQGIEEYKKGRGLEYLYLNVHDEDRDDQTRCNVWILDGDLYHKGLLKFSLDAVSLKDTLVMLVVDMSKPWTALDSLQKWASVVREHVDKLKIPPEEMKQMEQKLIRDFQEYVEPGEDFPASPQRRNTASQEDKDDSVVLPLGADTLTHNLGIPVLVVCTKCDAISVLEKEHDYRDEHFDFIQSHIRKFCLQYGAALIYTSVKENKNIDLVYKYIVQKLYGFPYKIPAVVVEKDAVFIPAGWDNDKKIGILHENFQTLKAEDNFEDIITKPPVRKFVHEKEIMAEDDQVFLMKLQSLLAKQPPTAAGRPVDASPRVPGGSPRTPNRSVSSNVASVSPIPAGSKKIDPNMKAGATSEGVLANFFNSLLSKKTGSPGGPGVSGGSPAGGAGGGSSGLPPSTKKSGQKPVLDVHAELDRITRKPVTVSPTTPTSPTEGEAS

B1: LIC1_(433–458), amphipathic helix of the dynein light intermediate chain-1 (peptide)
peptide: NMKAGATSEGVLANFFNSLLSKKTGS
As to B1, the affinity in assay [1], expressed as Kd, was 3 µM.

B2: NIN_(1–87), first EF-hand pair of Ninein (domain or fragment)
chain: MDEVEQDQHEARLKELFDSFDTTGTGSLGQEELTDLCHMLSLEEVAPVLQQTLLQDNLLGRVHFDQFKEALILILSRTLSNEEHFQE
In turn, B2 registered a Kd in assay [2] of 15.5 µM.

B3: FIP3_(206–270), EF-hand pair of Rab11 family-interacting protein 3 (domain or fragment)
chain: RLRAVFDALDGDGDGFVRIEDFIQFATVYGAEQVKDLTKYLDPSGLGVISFEDFYQGITAIRNGD
As for B3, in assay [2], binding was put at a Kd of 3.1 µM.
